Columns and labels:
[1] = biological target: EG-VEGF binding component on human umbilical vein endothelial cells (HUVEC) (human); experiment: displacement of 125I-EG-VEGF by unlabeled tagged EG-VEGF on HUVEC and other non-responsive cells
[2] = biological target: EG-VEGF receptor (high affinity binding sites) on bovine adrenal cortical capillary endothelial cells (ACE) (bovine); experiment: displacement of 125I-EG-VEGF by unlabeled tagged EG-VEGF on ACE cells
[3] = biological target: EG-VEGF receptor (high affinity binding sites) on bovine adrenal cortical capillary endothelial cells (ACE) (bovine); experiment: 125I-EG-VEGF competitive binding on ACE cells, Scatchard analysis

B1: EG-VEGF-his (human EG-VEGF with C-terminal … tag, baculovirus-produced) (ligand)
chain: AVITGACERDVQCGAGTCCAISLWLRGLRMCTPLGREGEECHPGSHKVPFFRKRKHHTCPCLPNLLCSRFPDGRYRCSMDLKNINFGHHHHHHHH
modifications: 125I-iodinated when used as tracer in the cell binding assays (Iodobead or lactoperoxidase method); the unlabeled form was the competitor and the ELISA antigen
In the case of B1, the competitor concentration that displaces the binding [1] is reported as over 270 nM, the ED50 [2] is reported as 10 nM and the Kd [3] is reported as 0.9 to 1 nM.

Reference: patent publication US7264801
